Our source for the fold weaker binding than the 14-3-3γ-binding peptides values is PMC7311396, “Ultra-large chemical libraries for the discovery of high-affinity peptide binders” (Nature Communications, 2020).

For the assay, the target named is FITC-labeled NB.1. Put plainly: fluorescence polarisation; direct fluorescence anisotropy: 1:1 dilution series of 14-3-3γ (starting at 100 μM) into FITC-labeled peptide (10 nM or 50 nM); 10 mM HEPES pH 7.4, 150 mM NaCl, 0.1% Tween 20, 0.1% BSA; ambient temperature. (Fluorescence polarisation rises when a labelled molecule tumbles more slowly, as on binding a larger partner.)

B1: 14-3-3γ (natural protein)
chain: MVDREQLVQKARLAEQAERYDDMAAAMKNVTELNEPLSNEERNLLSVAYKNVVGARRSSWRVISSIEQKTSADGNEKKIEMVRAYREKIEKELEAVCQDVLSLLDNYLIKNCSETQYESKVFYLKMKGDYYRYLAEVATGEKRATVVESSEKAYSEAHEISKEHMQPTHPIRLGLALNYSVFYYEIQNAPEQACHLAKTAFDDAIAELDTLNEDSYKDSTLIMQLLRDNLTLWTSDQQDDDGGEGNN
The molecule B1 yielded a fold weaker binding than the 14-3-3γ-binding peptides of 10000 fold.
